Assay results published in IntAct's records for PubMed 24207126.

B1: Eukaryotic translation initiation factor 4E-binding protein 2 (Homo sapiens), Q13542 (parent)
chain: MSSSAGSGHQPSQSRAIPTRTVAISDAAQLPHDYCTTPGGTLFSTTPGGTRIIYDRKFLLDRRNSPMAQTPPCHLPNIPGVTSPGTLIEDSKVEVNNLNNLNNHDRKHAVGDDAQFEMDI

Variants of: B1
Settings: with if4e_human EIF4E

| effect of a mutation on the interaction | Variant |
| --- | --- |
| decreasing interaction strength | I78A;P79A;G80A;V81A;T82A |
| decreasing interaction strength | Y54A;L59A |

Variants of: B1
Settings: with if4e_human EIF4E
Remark: another data set of the same source

| effect of a mutation on the interaction | Variant |
| --- | --- |
| disrupting interaction strength | Y54A;L59A;I78A;P79A;G80A;V81A;T82A |
